These results are taken from patent EP2353607A1.

The target in assay [1] is integrin α5β1 on cultured endothelial cells (species of the cells not stated). The assay is described as follows: cell-based or functional assay.
Assay [2] has as its target integrin αvβ3 on cultured endothelial cells (species of the cells not stated). The assay is described as follows: cell-based or functional assay.

In the case of “recombinant disintegrin domain (RDD) of metargidin (human ADAM-15)”, the endothelial cell migration (scratch-wound closure) in the presence of 15µg/ml RDD protein, as compared to untreated control culture in assay [1] and in assay [2] was 54.5% throughout.
